We go through two compounds from article PMC11091976, “Shorter Peptide Nucleic Acid Probes Improve Affibody-Mediated Peptide Nucleic Acid-Based Pretargeting” (ACS Pharmacology & Translational Science, 2024).

The format of data set [1] is physicochemical. As to the method: Table 4 summarizes the radiochemical yield (RCY), purity, and stability test results for all ^177Lu-labeled probes in this study. […] Such radiolabeling yield necessitated purification to achieve the requisite radiochemical purity of over 95%. Purification was conducted using a NAP-5 column, eluted with 1% BSA in PBS, resulting in radiochemical purities of 99 ± 1.7% for [^177Lu]Lu-Z-HP9 and 98.5 ± 2.2% for [^177Lu]Lu-Z-HP12, respectively. […] Thus, it was essential that the label was stable, and the compound was pure. […] The RCY for the secondary probes exceeded 97%, and consequently, further purification was deemed unnecessary for in vitro and in vivo studies. Importantly, all probes labeled with ^177Lu remained stable in the presence of an excess amount of EDTA and in PBS as control after incubation at 37 °C for 1 h.
Radiolabeling of primary and secondary probes with ^177Lu was performed using a previously described method.[29] Briefly, 100 μL of 0.2 M of NH4Ac, pH 5.5 was added to 30 μg of the probe (100 μL of 0.3 mg/mL stock in NH4Ac) to provide right pH for the labeling. The mixture was heated at 95 °C for 10 min, followed by sonication for 5 min, and reheating at 95 °C for 10 min to ensure complete dissolving. […] RCY was then analyzed using iTLC developed with 0.2 M citric acid, pH 2.0. […] Samples were run in triplicates and analyzed by radio-iTLC.

A short description of data set [2]: Solubility of secondary probes in labeling buffer. In kind it is physicochemical. The note with it: 0.2 M NH4Ac, pH 5.5, 25 °C. As to the method:
However, as we moved to shorter PNA oligomers, solubility saw a substantial, nonlinear increase. […] For example, at 25 °C, the maximum soluble concentration of HP17 (12-mer) was around 6 μM. […]
pH 5.5 at 25°C. Dilution series of HPLC-purified and lyophilized secondary probes (1, 3, 6, 9, 13, 26, 39, 52 and 65 µM) for […]
samples were heated at 95°C for five minutes and concentration of the soluble fraction was determined by UV absorption at 260 nm before (grey bars), and after (black bars) an 18-hour static incubation at 25°C. Duplicates were prepared of all samples and the data is presented as the mean ± SD. The maximum soluble concentration of each probe, indicated in panels A-E as a dotted line, was defined as the highest concentration at which at least 95% is still in the soluble fraction after an 18-hour incubation at 25°C. PNA-aggregates are temperature-labile, as exemplified in panel C for 82 µM HP17.
After an 18-hour incubation 25°C, 6 µM is left in the soluble fraction (left black bar) but heating the sample at 95 °C for five minutes completely redissolved HP17 aggregates into solution (right black bar).
(1 picture or pasted object on this page, not shown here)
Supplementary Material and methods
Solubility of secondary probes
HPLC-purified and freeze-dried secondary probes were resuspended in 10 mM NaAc, pH 3.5-3.6 and freeze-dried in smaller aliquots. The secondary probes were re-dissolved in 0.2 M NH4Ac, pH 5.5, and the samples were heated at 95 °C for five minutes to ensure complete dissolvement. Dilution series of secondary probes (1, 3, 6, 9, 13, 26, 39, 52 and 65 μM) for […]
NH4Ac, pH 5.5. The samples were then left for an 18-hour static incubation at 25 C, before being centrifugated at 21,100 x g for 5 minutes on a standard benchtop centrifuge (Eppendorf). The supernatants were transferred to fresh 1.5 mL Eppendorf-tubes, and the […]

As for `NC(=O)[C@H](Cc1ccc(O)cc1)NC(=O)[C@H](CCC(=O)O)NC(=O)[C@H](CCC(=O)O)NC(=O)CN(CCNC(=O)CN(CCNC(=O)CN(CCNC(=O)CN(CCNC(=O)CN(CCNC(=O)CN(CCNC(=O)CN(CCNC(=O)CN(CCNC(=O)[C@H](CO)NC(=O)[C@H](CO)NC(=O)COCCOCCNC(=O)CN1CCN(CC(=O)O)CCN(CC(=O)O)CCN(CC(=O)O)CC1)C(=O)Cn1cnc2c(N)ncnc21)C(=O)Cn1ccc(N)nc1=O)C(=O)Cn1cnc2c(N)ncnc21)C(=O)Cn1ccc(N)nc1=O)C(=O)Cn1ccc(N)nc1=O)C(=O)Cn1cnc2c(N)ncnc21)C(=O)Cn1cnc2c(=O)[nH]c(N)nc21)C(=O)Cn1cnc2c(=O)[nH]c(N)nc21` [[^177Lu]Lu-HP20, metal not drawn], in data set [1], the “stability (×500 EDTA), 37 °C, 1 h” value was found to be 99.5 ± 0.7 and the “stability in PBS, 37 °C, 1 h” value was 100 ± 0.
Regarding “DOTA-AEEA-SS-aacaccagg-EEY-NH2 [HP16, 9-mer secondary PNA probe with DOTA]”, the “increase in solubility compared to the 15-mer HP18” value in data set [2] was approximately 10 fold. This compound registered a maximum soluble concentration in data set [2] (heated 95 °C 5 min, 18-h static incubation, centrifugation, UV 260 nm of supernatant, highest concentration with at least 95% still soluble, duplicates) of 26 µM.
